Assay results from patent US8372961B2, “Polynucleotides encoding concatameric immunoadhesion molecules” (Medexgen Co., Ltd., priority 2001, dated 2013).

Assays:
TNFβ = biological target: T1, TNFβ (Homo sapiens, UniProt P01374); assay: Neutralization of TNFβ cytotoxicity on L929 cells (crystal violet staining); type: cell-based; conditions: for IC50 of cytotoxicity inhibition, TNFβ treated: actinomycin D 3 μg/ml, TNFβ 0.5~2 ng/ml (100% cytotoxicity), 16~18 hrs
T1 sequence (P01374 35-205): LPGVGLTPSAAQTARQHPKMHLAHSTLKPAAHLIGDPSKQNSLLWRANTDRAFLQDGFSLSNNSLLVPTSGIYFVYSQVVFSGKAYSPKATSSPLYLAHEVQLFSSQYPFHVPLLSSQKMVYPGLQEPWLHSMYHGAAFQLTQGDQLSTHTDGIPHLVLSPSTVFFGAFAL
Procedure: (§1) An L929 cell [ATCC, Mus musculus (mouse), NCTC clone 929 (derivative of strain L; L-929; L cell) was used for testing the effect of TNFR/Fc fusion protein on the inhibition of cytotoxicity induced by TNFα and TNFβ. This analysis was based on the TNFR activity of inhibiting cytotoxicity induced by TNF (Scallon et al., Cytokine 7:759, 1995).
(§2) L929 cells were inoculated to be 3×10^4 cells/well in 96-well plates, and incubated at 37° C. for 24 hrs in a CO2 incubator. Subsequently, actinomycin D (Sigma, USA) was added to 3 μg/ml, and cells were incubated for 16˜18 hrs with TNFα and TNFβ in the concentration of expressing 100% cytotoxicity (0.5˜2 ng/ml), and with serially 10 times diluted TNFR sample. Then, the cells in the 96-well plate were stained by the staining reagent, crystal violet (Wake Pure Chemical Industries, Japan) and the activity of the cells was estimated by the degree of absorbance at 595 nm wavelength using a spectrophotometer (Bio-Rad, Model-550, Japan).

TNFα = TNFα (Homo sapiens, UniProt P01375); assay: Neutralization of TNFα cytotoxicity on L929 cells (crystal violet staining); type: cell-based; conditions: for IC50 of cytotoxicity inhibition, TNFα treated: actinomycin D 3 μg/ml, TNFα 0.5~2 ng/ml (100% cytotoxicity), 16~18 hrs
Procedure: as §1, §2

Sequence of TNFα (P01375 77-233 limits assumed, species assumed): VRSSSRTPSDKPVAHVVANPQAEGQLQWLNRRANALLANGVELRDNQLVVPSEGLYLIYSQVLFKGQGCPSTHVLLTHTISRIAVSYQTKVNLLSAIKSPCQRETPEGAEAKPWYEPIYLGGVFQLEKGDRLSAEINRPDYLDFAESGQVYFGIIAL

Substance: [TNFR1-TNFR1/Fc]2: concatameric fusion dimeric protein: two TNFR1 soluble extracellular domains in tandem fused to IgG1 Fc; monomer SEQ ID NO: 6
- IC50 of cytotoxicity inhibition, TNFβ treated (TNFβ): 20 µg/mL
- inhibitory effect on the cytotoxicity induced by TNFβ, compared with simple dimeric fusion proteins (TNFβ; versus TNFR1/Ig and TNFR2/Ig): higher inhibitory effect
- IC50 of cytotoxicity inhibition, TNFα treated (TNFα): 9 µg/mL
- inhibitory effect on the cytotoxicity induced by TNFα, compared with simple dimeric fusion proteins (TNFα; versus TNFR1/Ig and TNFR2/Ig): higher inhibitory effect

Substance: [TNFR1/Fc]2: conventional simple fusion dimeric protein: soluble extracellular domain of human TNFR1 fused to IgG1 Fc; monomer SEQ ID NO: 2 [reference compound]
- IC50 of cytotoxicity inhibition, TNFβ treated (TNFβ): 129 µg/mL
- IC50 of cytotoxicity inhibition, TNFα treated (TNFα): 63 µg/mL
